Measured values reported in patent US20140315822A1 (INSTITUT PASTEUR, published 2014).

B1: PDZ domain of the human MAST2 protein (other)
chain: MRPPIIIHRAGKKYGFTLRAIRVYMGDSDVYTVHHMVWHVEDGGPASEAGLRQGDLITHVNGEPVHGLVHTEVVELILKSGNKVAISTTPLEN
- Kd 443: 400 nM
- Kd 453: 238 nM
- Kd 460: 188 nM
- Kd 455: 130 nM
- Kd 461: 126 nM
- Kd 439: 210 nM
